Measurements as given in the supplement of paper PMC5998384.

Key:
[1] = test system: HeLa Kyoto; assay: solubility change mitosis vs G1/S (difference of NP-40 vs SDS log2 ratios) (log2 ratio difference); higher = more soluble in mitosis
[2] = test system: HeLa Kyoto; assay: solubility in G1/S (NP-40 vs SDS abundance) (log2 ratio); higher = more soluble; settings: cell cycle stage: G1/S
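Wherever solubility change mitosis vs G1/S (difference of NP-40 vs SDS log2 ratios) is given: synchronized HeLa Kyoto cells (double thymidine block for G1/S, nocodazole release for mitosis), protein amounts in NP-40 versus SDS lysates quantified by mass spectrometry, three biological replicates.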
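Wherever solubility in G1/S (NP-40 vs SDS abundance) is given: HeLa Kyoto cells arrested at G1/S by double thymidine block, proteins quantified by TMT10plex mass spectrometry in mild NP-40 versus SDS extracts, three biological replicates.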

| Sequence | solubility change mitosis (log2) [1] | solubility in G1/S (log2) [2] |
| --- | --- | --- |
| MKQLPAATVRLLSSSQIITSVVSVVKELIENSLDAGATSVDVKLENYGFDKIEVRDNGEGIKAVDAPVMAMKYYTSKINSHEDLENLTTYGFRGEALGSICCIAEVLITTRTAADNFSTQYVLDGSGHILSQKPSHLGQGTTVTALRLFKNLPVRKQFYSTAKKCKDEIKKIQDLLMSFGILKPDLRIVFVHNKAVIWQKSRVSDHKMALMSVLGTAVMNNMESFQYHSEESQIYLSGFLPKCDADHSFTSLSTPERSFIFINSRPVHQKDILKLIRHHYNLKCLKESTRLYPVFFLKIDVPTADVDVNLTPDKSQVLLQNKESVLIALENLMTTCYGPLPSTNSYENNKTDVSAADIVLSKTAETDVLFNKVESSGKNYSNVDTSVIPFQNDMHNDESGKNTDDCLNHQISIGDFGYGHCSSEISNIDKNTKNAFQDISMSNVSWENSQTEYSKTCFISSVKHTQSENGNKDHIDESGENEEEAGLENSSEISADEWSRGNILKNSVGENIEPVKILVPEKSLPCKVSNNNYPIPEQMNLNEDSCNKKSNVIDNKSGKVTAYDLLSNRVIKKPMSASALFVQDHRPQFLIENPKTSLEDATLQIEELWKTLSEEEKLKYEEKATKDLERYNSQMKRAIEQESQMSLKDGRKKIKPTSAWNLAQKHKLKTSLSNQPKLDELLQSQIEKRRSQNIKMVQIPFSMKNLKINFKKQNKVDLEEKDEPCLIHNLRFPDAWLMTSKTEVMLLNPYRVEEALLFKRLLENHKLPAEPLEKPIMLTESLFNGSHYLDVLYKMTADDQRYSGSTYLSDPRLTANGFKIKLIPGVSITENYLEIEGMANCLPFYGVADLKEILNAILNRNAKEVYECRPRKVISYLEGEAVRLSRQLPMYLSKEDIQDIIYRMKHQFGNEIKECVHGRPFFHHLTYLPETT [PMS1] | -0.108 | -0.0908 |
| MLARALLLCAVLALSHTANPCCSHPCQNRGVCMSVGFDQYKCDCTRTGFYGENCSTPEFLTRIKLFLKPTPNTVHYILTHFKGFWNVVNNIPFLRNAIMSYVLTSRSHLIDSPPTYNADYGYKSWEAFSNLSYYTRALPPVPDDCPTPLGVKGKKQLPDSNEIVEKLLLRRKFIPDPQGSNMMFAFFAQHFTHQFFKTDHKRGPAFTNGLGHGVDLNHIYGETLARQRKLRLFKDGKMKYQIIDGEMYPPTVKDTQAEMIYPPQVPEHLRFAVGQEVFGLVPGLMMYATIWLREHNRVCDVLKQEHPEWGDEQLFQTSRLILIGETIKIVIEDYVQHLSGYHFKLKFDPELLFNKQFQYQNRIAAEFNTLYHWHPLLPDTFQIHDQKYNYQQFIYNNSILLEHGITQFVESFTRQIAGRVAGGRNVPPAVQKVSQASIDQSRQMKYQSFNEYRKRFMLKPYESFEELTGEKEMSAELEALYGDIDAVELYPALLVEKPRPDAIFGETMVEVGAPFSLKGLMGNVICSPAYWKPSTFGGEVGFQIINTASIQSLICNNVKGCPFTSFSVPDPELIKTVTINASSSRSGLDDINPTVLLKERSTEL [PTGS2] | -0.117 | 0.069 |
| MLGQQQQQLYSSAALLTGERSRLLTCYVQDYLECVESLPHDMQRNVSVLRELDNKYQETLKEIDDVYEKYKKEDDLNQKKRLQQLLQRALINSQELGDEKIQIVTQMLELVENRARQMELHSQCFQDPAESERASDKAKMDSSQPERSSRRPRRQRTSESRDLCHMANGIEDCDDQPPKEKKSKSAKKKKRSKAKQEREASPVEFAIDPNEPTYCLCNQVSYGEMIGCDNEQCPIEWFHFSCVSLTYKPKGKWYCPKCRGDNEKTMDKSTEKTKKDRRSR [ING2] | 0.625 | -0.404 |
| MLQSLAGSSCVRLVERHRSAWCFGFLVLGYLLYLVFGAVVFSSVELPYEDLLRQELRKLKRRFLEEHECLSEQQLEQFLGRVLEASNYGVSVLSNASGNWNWDFTSALFFASTVLSTTGYGHTVPLSDGGKAFCIIYSVIGIPFTLLFLTAVVQRITVHVTRRPVLYFHIRWGFSKQVVAIVHAVLLGFVTVSCFFFIPAAVFSVLEDDWNFLESFYFCFISLSTIGLGDYVPGEGYNQKFRELYKIGITCYLLLGLIAMLVVLETFCELHELKKFRKMFYVKKDKDEDQVHIIEHDQLSFSSITDQAAGMKEDQKQNEPFVATQSSACVDGPANH [KCNK1] | -0.0475 | -0.169 |
| MLRLLASGCARGPGPGVGARPAAGLFHPGRRQSRQASDAPRNQPPSPEFVARPVGVCSMMRLPVQTSPEGLDAAFIGVPLDTGTSNRPGARFGPRRIREESVMLGTVNPSTGALPFQSLMVADLGDVNVNLYNLQDSCRRIQEAYEKIVAAGCIPLTLGGDHTITYPILQAMAKKHGPVGLLHVDAHTDTTDKALGEKLYHGAPFRRCVDEGLLDCKRVVQIGIRGSSTTLDPYRYNRSQGFRVVLAEDCWMKSLVPLMGEVRQQMGGKPIYISFDIDALDPAYAPGTGTPEIAGLTPSQALEIIRGCQGLNVMGCDLVEVSPPYDLSGNTALLAANLLFEMLCALPKVTTV [AGMAT] | 0.0673 | 0.243 |
| MLRLQMTDGHISCTAVEFSYMSKISLNTPPGTKVKLSGIVDIKNGFLLLNDSNTTVLGGEVEHLIEKWELQRSLSKHNRSNIGTEGGPPPFVPFGQKCVSHVQVDSRELDRRKTLQVTMPVKPTNDNDEFEKQRTAAIAEVAKSKETKTFGGGGGGARSNLNMNAAGNRNREVLQKEKSTKSEGKHEGVYRELVDEKALKHITEMGFSKEASRQALMDNGNNLEAALNVLLTSNKQKPVMGPPLRGRGKGRGRIRSEDEEDLGNARPSAPSTLFDFLESKMGTLNVEEPKSQPQQLHQGQYRSSNTEQNGVKDNNHLRHPPRNDTRQPRNEKPPRFQRDSQNSKSVLEGSGLPRNRGSERPSTSSVSEVWAEDRIKCDRPYSRYDRTKDTSYPLGSQHSDGAFKKRDNSMQSRSGKGPSFAEAKENPLPQGSVDYNNQKRGKRESQTSIPDYFYDRKSQTINNEAFSGIKIEKHFNVNTDYQNPVRSNSFIGVPNGEVEMPLKGRRIGPIKPAGPVTAVPCDDKIFYNSGPKRRSGPIKPEKILESSIPMEYAKMWKPGDECFALYWEDNKFYRAEVEALHSSGMTAVVKFIDYGNYEEVLLSNIKPIQTEAWEEEGTYDQTLEFRRGGDGQPRRSTRPTQQFYQPPRARN [TDRD3] | 0.149 | -0.658 |
| MLRRPAPALAPAARLLLAGLLCGGGVWAARVNKHKPWLEPTYHGIVTENDNTVLLDPPLIALDKDAPLRFAESFEVTVTKEGEICGFKIHGQNVPFDAVVVDKSTGEGVIRSKEKLDCELQKDYSFTIQAYDCGKGPDGTNVKKSHKATVHIQVNDVNEYAPVFKEKSYKATVIEGKQYDSILRVEAVDADCSPQFSQICSYEIITPDVPFTVDKDGYIKNTEKLNYGKEHQYKLTVTAYDCGKKRATEDVLVKISIKPTCTPGWQGWNNRIEYEPGTGALAVFPNIHLETCDEPVASVQATVELETSHIGKGCDRDTYSEKSLHRLCGAAAGTAELLPSPSGSLNWTMGLPTDNGHDSDQVFEFNGTQAVRIPDGVVSVSPKEPFTISVWMRHGPFGRKKETILCSSDKTDMNRHHYSLYVHGCRLIFLFRQDPSEEKKYRPAEFHWKLNQVCDEEWHHYVLNVEFPSVTLYVDGTSHEPFSVTEDYPLHPSKIETQLVVGACWQEFSGVENDNETEPVTVASAGGDLHMTQFFRGNLAGLTLRSGKLADKKVIDCLYTCKEGLDLQVLEDSGRGVQIQAHPSQLVLTLEGEDLGELDKAMQHISYLNSRQFPTPGIRRLKITSTIKCFNEATCISVPPVDGYVMVLQPEEPKISLSGVHHFARAASEFESSEGVFLFPELRIISTITREVEPEGDGAEDPTVQESLVSEEIVHDLDTCEVTVEGEELNHEQESLEVDMARLQQKGIEVSSSELGMTFTGVDTMASYEEVLHLLRYRNWHARSLLDRKFKLICSELNGRYISNEFKVEVNVIHTANPMEHANHMAAQPQFVHPEHRSFVDLSGHNLANPHPFAVVPSTATVVIVVCVSFLVFMIILGVFRIRAAHRRTMRDQDTGKENEMDWDDSALTITVNPMETYEDQHSSEEEEEEEEEEESEDGEEEDDITSAESESSEEEEGEQGDPQNATRQQQLEWDDSTLSY [CLSTN1] | -0.189 | -0.0306 |
| MMADEEEEVKPILQKLQELVDQLYSFRDCYFETHSVEDAGRKQQDVQKEMEKTLQQMEEVVGSVQGKAQVLMLTGKALNVTPDYSPKAEELLSKAVKLEPELVEAWNQLGEVYWKKGDVAAAHTCFSGALTHCRNKVSLQNLSMVLRQLRTDTEDEHSHHVMDSVRQAKLAVQMDVHDGRSWYILGNSYLSLYFSTGQNPKISQQALSAYAQAEKVDRKASSNPDLHLNRATLHKYEESYGEALEGFSRAAALDPAWPEPRQREQQLLEFLDRLTSLLESKGKVKTKKLQSMLGSLRPAHLGPCSDGHYQSASGQKVTLELKPLSTLQPGVNSGAVILGKVVFSLTTEEKVPFTFGLVDSDGPCYAVMVYNIVQSWGVLIGDSVAIPEPNLRLHRIQHKGKDYSFSSVRVETPLLLVVNGKPQGSSSQAVATVASRPQCE [TTC5] | 0.145 | 0.132 |
| MMAQSNMFTVADVLSQDELRKKLYQTFKDRGILDTLKTQLRNQLIHELMHPVLSGELQPRSISVEGSSLLIGASNSLVADHLQRCGYEYSLSVFFPESGLAKEKVFTMQDLLQLIKINPTSSLYKSLVSGSDKENQKGFLMHFLKELAEYHQAKESCNMETQTSSTFNRDSLAEKLQLIDDQFADAYPQRIKFESLEIKLNEYKREIEEQLRAEMCQKLKFFKDTEIAKIKMEAKKKYEKELTMFQNDFEKACQAKSEALVLREKSTLERIHKHQEIETKEIYAQRQLLLKDMDLLRGREAELKQRVEAFELNQKLQEEKHKSITEALRRQEQNIKSFEETYDRKLKNELLKYQLELKDDYIIRTNRLIEDERKNKEKAVHLQEELIAINSKKEELNQSVNRVKELELELESVKAQSLAITKQNHMLNEKVKEMSDYSLLKEEKLELLAQNKLLKQQLEESRNENLRLLNRLAQPAPELAVFQKELRKAEKAIVVEHEEFESCRQALHKQLQDEIEHSAQLKAQILGYKASVKSLTTQVADLKLQLKQTQTALENEVYCNPKQSVIDRSVNGLINGNVVPCNGEISGDFLNNPFKQENVLARMVASRITNYPTAWVEGSSPDSDLEFVANTKARVKELQQEAERLEKAFRSYHRRVIKNSAKSPLAAKSPPSLHLLEAFKNITSSSPERHIFGEDRVVSEQPQVGTLEERNDVVEALTGSAASRLRGGTSSRRLSSTPLPKAKRSLESEMYLEGLGRSHIASPSPCPDRMPLPSPTESRHSLSIPPVSSPPEQKVGLYRRQTELQDKSEFSDVDKLAFKDNEEFESSFESAGNMPRQLEMGGLSPAGDMSHVDAAAAAVPLSYQHPSVDQKQIEEQKEEEKIREQQVKERRQREERRQSNLQEVLERERRELEKLYQERKMIEESLKIKIKKELEMENELEMSNQEIKDKSAHSENPLEKYMKIIQQEQDQESADKSSKKMVQEGSLVDTLQSSDKVESLTGFSHEELDDSW [OFD1] | 0.252 | -0.146 |
| MMDPCSVGVQLRTTNECHKTYYTRHTGFKTLQELSSNDMLLLQLRTGMTLSGNNTICFHHVKIYIDRFEDLQKSCCDPFNIHKKLAKKNLHVIDLDDATFLSAKFGRQLVPGWKLCPKCTQIINGSVDVDTEDRQKRKPESDGRTAKALRSLQFTNPGRQTEFAPETGKREKRRLTKNATAGSDRQVIPAKSKVYDSQGLLIFSGMDLCDCLDEDCLGCFYACPACGSTKCGAECRCDRKWLYEQIEIEGGEIIHNKHAG [ARL14EP] | -0.0185 | -0.0781 |
